Assay: soluble on expression in E. coli; label from the status in PepcDB or PDB records

Sequence | soluble on expression in E. coli
MAENKTINKEQNRTENNEIVIMNFSGIYKEQQFYRNHAEMQEDISWLEVQDLPGSNCYCDEEAKNRILDDIKNYTGNGIHFIDSGNYHYVSRLWLSKMEHPFRLLVFDNHTDMQLPAFGGLLSCGGWIAASLEEVPMLQEVILVGPDEEAYMQVEPEFQQKVQFLSREKLLAMTGEEKNTFFRNLRADLPMYISVDKDVLCTADASTTWSQGDMSLEKLQKFLEIVLQQQQILGMDICGECDPDACERNLLNDRANQKLLELWKKYFPQIRERRQDI | not soluble
MGSDKIHHHHHHMVTLVRQVEIQPYQPKYAQAVSELFHLCVHNIEHERYSQAQLNAWSKAPRSAKHWHLRLSRSQAWIILVTSTESLSKICVGFINVETDYYHRGYIDSFYIHPDWQRQGVGGRVYCELEQWARGQGYASLSVDASYLSKGLFTQLGFVQIQRNYQQKLGQVLTSFYMTKKL | not soluble
MSLGNGVGTCDLPPQFAYFFQFSHLSATRNLLCLDLDETLVCSKQRTPQTRETEDFYVVVEQRGKRYEFSVIKRPGLDVFLVSMAELYDLAIFTYAIKEYGDKIVNIIDPNRLIKYRMYRQHCVKYLVDKRHVIVKDLSRVGKPHSSILLIDNSASTGIWQRNNFLLVPSFYGDERDKVLYELKELLEGISKCKDFYTEIQSLRSVEGHHHHHH | soluble
MGYPVILHLRGRRAVVVGGGKVAARKIHGLLEAGAEIVMIAPEAEPELQALAAGGMIVWKKKRFDPDDLAEAFLVIAATNDRKVNEAVTQAASSGQLVNVVDDPERCDFHVPAVIRRGPLTIAVSTGGASPAVARRIRRELEEKYGEEYRPYLEFLQRARGIVLREVEDAEGRKRLFQALAADSFRQSGRWEEEFTRLLAKEKERNKEGERGR | soluble
MFQLLAVCPMGLEAVVAREIQELGYETNVENGRIFFEGDASAIVKANLWLRTADRIKIVVGRFNATTFDELFEQTKALPWESIIDKEGNFPVQGRSVKSTLHSVPDCQAITKKAIVERLRRAYNEKGWLNESGAKYPVEVAILKDNVLLTIDTSGSGLNRRGYRLAQGEAPIKETLAASLIRLANWKGDTPLIDPFCGSGTIAIEACLIAQNIAPGFNREFVSEQWNIMPANIYDDYRDEADKMADYDKEIEVYASDIDPEMVEIAKRNAEEVGLSDIIKFSVKDVNTLTIDTEEPVALIGNPPYGERIGDREEVEEMYRYIGKLMKQHPFLSTYILTSNKEFEYLVNRKATKRRKLFNGYIECTYYQYWGKKTERKTIEN | not soluble
MSQTITVKVKLLPTKEQIQLLEQSSYEYIKVINTLVSEMAEAKKSTKKSTKDVEANLPSAVKNQAIKDAKSVFSTKVKKSKYKVIPILKRPVCVWNNQNYSFDFTHISVPLMVNGKSTRLKVRALLTDKYNRNFNLLTHKLGTLRITKKSNKWIAQISVTIPTNEKTGTKILGVDLGLKVPAVAITDDEKVRFFGNGRQNKYMKRKFRSVRKKLGENKKLNAIRQLDDKEQRWMQDQDHKVSREIIDFATDNNISVIRLEQLTNIRQTARTSRKNEKNLHTWSFYRLAQFIEYKANLVGIKVEYVNPAYTSQTCPKCSEKNKAPDRKYKCRCGFEKHRDIVGAMNIRYATVIDGNSQSALEHHHHHH | soluble
MSLNAKPKDTVIANARIVLADRVIEQGWLALANGRVAEIGEGRAPAGAEDAGGDLIMPGLIELHTDHLEAHYVPRPKVFWNPVAAVVSYDGQLATSGITTVFDSLRVWREDGAEEVDGRAGVLAAAITTARDADLLRADHFLHLRCEIPMPSVVEEAKELIDRPDVKLMSLMDHTPGQRQFRDEGKLRDYYRGKNGGKTDAQLDELFAKRFEYQKAYAATNMREIVALAHQYNIPLASHDDTTEENVADAVRDRVSVAEFPTTLEAARGLHQAGIDILMGAPNVVRGGSHSGNIAAVDLAREGLLDILSSDYIPSSLLMAALQLPEHVPAISLPAAVRTVTKAPAEAVGLSDRGEIAVGKRADLIRVHIAGSVPVVRSVWREGGRVAEGHHHHHH | soluble
